Measured values taken from US20150119475.

Biological target: Snail protein (SNAI1/Snail, expressed as GST fusion in E. coli, GST moiety cleaved with thrombin) (UniProt O95863)
Sequence (O95863 whole entry, the tested form may be a part): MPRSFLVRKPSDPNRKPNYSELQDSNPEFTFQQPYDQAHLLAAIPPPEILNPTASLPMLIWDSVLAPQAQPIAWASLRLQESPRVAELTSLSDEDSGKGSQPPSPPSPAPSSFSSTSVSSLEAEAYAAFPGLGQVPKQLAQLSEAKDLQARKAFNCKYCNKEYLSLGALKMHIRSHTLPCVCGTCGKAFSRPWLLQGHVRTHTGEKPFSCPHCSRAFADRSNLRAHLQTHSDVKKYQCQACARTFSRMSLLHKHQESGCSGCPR

## recombinant Akt3 (ProQinase GmbH)
  in vitro kinase assay with 32P-ATP, detected by autoradiography: Akt1 and Akt3 kinases are able to directly phosphorylate Snail protein
